# Measured values as given in patent US20230192878A1, “METHODS, THERAPIES AND USES FOR TREATING CANCER” (PFIZER INC., priority 2020, published 2023).
# Experiments:
# H929 = test: Cell surface BCMA expression after GSI, concentration series; type: cell-based; details: 24 hours
# Description: (§1) Multiple myeloma cells (MM.1S, OPM2, H929, Molp8, RPMI8226) were seeded in a 96-well U bottom plate at 40,000 cells/well. Cells were incubated for 24 hours in the presence of GSI diluted in RPMI (0.1% DMSO). The following concentrations of the GSI were tested: 1000 nM, 500 nM, 100 nM, 50 nM, 25 nM, 10 nM, 5 nM, 2.5 nM, 1 nM, 0.1 nM, 0.01 nM. 24 hours later cells were collected and washed with PBS+2% FBS, followed by staining with ZombieNIR Viability Dye (Biolegend) at 1 in 500 dilution in PBS at room temperature for 20 minutes. Next, cells were washed with PBS+2% FBS and stained with anti-BCMA PE-labelled antibody (Biolegend) diluted in PBS+2% FBS for 30 minutes at 4° C. Cells were acquired on BD Flow Cytometer and analyzed using FlowJo flow cytometry analysis software. Dead cells were removed from analysis by gating on ZombieNIR negative population. BCMA mean fluorescence intensity (MFI) was plotted against GSI concentration to establish EC50.
# RPMI8226 = test: as above; type: cell-based; details: 24 hours
# Description: as §1
# MM.1S = test: as above; type: cell-based; details: 24 hours
# Description: as §1
# [1] = First in human Phase 1 clinical study: safety (CRS, DLT); type: in vivo
# Excerpt: This Example illustrates an ongoing Phase 1 open-label, multicenter clinical study of PF-06863135 (BCMAxCD3 bispecific) as monotherapy and in combination with sasanlimab, lenalidomide or pomalidomide, in adult patients with advanced multiple myeloma who have relapsed from or are refractory to standard therapy. The study has been registered on ClinicalTrials.gov with identifier NCT03269136 and was first posted August 2017. Study results for Part 1 of the trial and additional arms for the study are described in this Example.
# Part 1 of the Study is the […] single agent dose escalation arm at the dose levels of 0.1, 0.3, 1, 3, 10, 30, and 50 μg/kg Q1W by intravenous (IV) administration, and at the dose levels of 80, 130, 215, 360, 600 and 1000 μg/kg Q1W by subcutaneous (SC) administration. Upon reaching maximum tolerated dose (MTD)/maximum administered dose (MAD), patients can be treated at a dose level selected from the foregoing dose levels described in this paragraph, and below the MTD/MAD fora Q2W administration, both IV and SC, to further support the recommended phase 2 dose (RP2D) decision. For the study, dose limiting toxicity observation period is set at 21 days for Q1W dosing and 28 days for Q2W dosing. The treatment cycle, aka cycle, for Q1W dosing would be 3 weeks, and for Q2W dosing would be four weeks.
# Clinical Outcome of Part 1 of the Study. As of 15 Apr. 2020, a total of 23 patients were enrolled in Part 1 of the study and had been treated with PF-06863135 administered intravenously (IV) at 0.1 (N=2), 0.3 (N=3), 1 (N=2), 3 (N=3), 10 (N=2), 30 (N=5), and 50 (N=6) μg/kg. As of Aug. 21, 2020, a total of 30 patients were enrolled in Part 1 of the study and had been treated with PF-06863135 administered subcutaneously (SC) at 80 (N=6), 130 (N=4), 215 (N=4), 360 (N=4), 600 (N=6) and 1000 (N=6) μg/kg. Safety and efficacy data were available for in 23 IV and 30 SC treated patients per IMWG (International Myeloma Working Group) criteria.
# Part 1.1 of the Study is an alternative maintenance dose escalation arm for single agent PF-06863135. If excessive toxicity occurs or the maximum tolerated dose (MTD)/maximum administered dose (MAD) is reached at a dose level that is earlier than desired in Part 1 of the study described above, a priming dose will be administered one week prior to the day 1 cycle 1 administration of the dose (maintenance dose) at this dose level and for all subsequent dose levels in the dose escalation that may be initiated for Part 1.1. The priming dosing will be at a lower dose level than the maintenance dose.
# [2] = 600 μg/kg priming, 1000 μg/kg Q1W or Q2W SC, N = 20
compound,measurement,setting,value
"CCC[C@H](N[C@H]1CCc2cc(F)cc(F)c2C1)C(=O)Nc1cn(C(C)(C)CNCC(C)(C)C)cn1 [GSI, nirogacestat]",BCMA (-PE) MFI,"H929; H929, GSI 0.01 nM",4824.5
same,BCMA (-PE) MFI,"H929; H929, GSI 0.1 nM",5305.5
same,BCMA (-PE) MFI,"H929; H929, GSI 1 nM",8615.5
same,BCMA (-PE) MFI,"H929; H929, GSI 2.5 nM",10344.5
same,BCMA (-PE) MFI,"H929; H929, GSI 5 nM",13226
same,BCMA (-PE) MFI,"H929; H929, GSI 10 nM",15670
same,BCMA (-PE) MFI,"H929; H929, GSI 25 nM",18445.5
same,BCMA (-PE) MFI,"H929; H929, GSI 50 nM",17424.5
same,BCMA (-PE) MFI,"H929; H929, GSI 100 nM",19455.5
same,BCMA (-PE) MFI,"H929; H929, GSI 500 nM",20285.5
same,BCMA (-PE) MFI,"H929; H929, GSI 1000 nM",21156
same,BCMA (-PE) MFI,"RPMI8226; RPMI8226, GSI 0.01 nM",10028
same,BCMA (-PE) MFI,"RPMI8226; RPMI8226, GSI 0.1 nM",10099
same,BCMA (-PE) MFI,"RPMI8226; RPMI8226, GSI 1 nM",10483.5
same,BCMA (-PE) MFI,"RPMI8226; RPMI8226, GSI 2.5 nM",10226.5
same,BCMA (-PE) MFI,"RPMI8226; RPMI8226, GSI 5 nM",10589.5
same,BCMA (-PE) MFI,"RPMI8226; RPMI8226, GSI 10 nM",11181.5
same,BCMA (-PE) MFI,"RPMI8226; RPMI8226, GSI 25 nM",12617
same,BCMA (-PE) MFI,"RPMI8226; RPMI8226, GSI 50 nM",13190.5
same,BCMA (-PE) MFI,"RPMI8226; RPMI8226, GSI 100 nM",13416
same,BCMA (-PE) MFI,"RPMI8226; RPMI8226, GSI 500 nM",13464.5
same,BCMA (-PE) MFI,"RPMI8226; RPMI8226, GSI 1000 nM",14362
same,BCMA (-PE) MFI,MM.1S; GSI 0.01 nM,15589.5
same,BCMA (-PE) MFI,MM.1S; GSI 0.1 nM,15775.5
same,BCMA (-PE) MFI,MM.1S; GSI 1 nM,14396
same,BCMA (-PE) MFI,MM.1S; GSI 2.5 nM,21412.5
same,BCMA (-PE) MFI,MM.1S; GSI 5 nM,28832
same,BCMA (-PE) MFI,MM.1S; GSI 10 nM,31248
same,BCMA (-PE) MFI,MM.1S; GSI 25 nM,37026.5
same,BCMA (-PE) MFI,MM.1S; GSI 50 nM,38111
same,BCMA (-PE) MFI,MM.1S; GSI 100 nM,37582.5
same,BCMA (-PE) MFI,MM.1S; GSI 500 nM,35780
same,BCMA (-PE) MFI,MM.1S; GSI 1000 nM,35780
PF-06863135: heterodimeric humanized full-length bispecific antibody with one BCMA binding arm and one CD3 binding arm,"CRS observed, patient(s)",[1]; 10 μg/kg IV cohort,1 (50.0%)
same,"CRS observed, patient(s)",[1]; 30 μg/kg IV cohort,4 (80.0%)
same,Patients who experienced dose limiting toxicities (DLTs),[1]; 30 μg/kg IV cohort,1 patient
same,Patients in whom CRS also occurred after later doses (second to fourth),[1]; 50 μg/kg IV,3 patients
same,"CRS observed, patient(s)",[1]; 50 μg/kg IV cohort,6 (100.0%)
same,Patients who experienced dose limiting toxicities (DLTs),[1]; 50 μg/kg IV cohort,1 patient
same,CRS Grade 1 (patients),"[1]; 80 μg/kg Q1W SC, N = 6",2
same,CRS Grade 2 (patients),"[1]; 80 μg/kg Q1W SC, N = 6",1
same,CRS Mean duration,"[1]; 80 μg/kg Q1W SC, N = 6",1 days
same,Patients with CRS,"[1]; 80 μg/kg Q1W SC, N = 6",3 (50%)
same,CRS Grade 1 (patients),"[1]; 130 μg/kg Q1W SC, N = 4",2
same,CRS Grade 2 (patients),"[1]; 130 μg/kg Q1W SC, N = 4",0
same,CRS Mean duration,"[1]; 130 μg/kg Q1W SC, N = 4",3 days
same,Patients with CRS,"[1]; 130 μg/kg Q1W SC, N = 4",2 (50%)
same,CRS Grade 1 (patients),"[1]; 215 μg/kg Q1W SC, N = 4",3
same,CRS Grade 2 (patients),"[1]; 215 μg/kg Q1W SC, N = 4",0
same,CRS Mean duration,"[1]; 215 μg/kg Q1W SC, N = 4",3 days
same,Patients with CRS,"[1]; 215 μg/kg Q1W SC, N = 4",3 (75%)
same,CRS Grade 1 (patients),"[1]; 360 μg/kg Q1W SC, N = 4",2
same,CRS Grade 2 (patients),"[1]; 360 μg/kg Q1W SC, N = 4",1
same,CRS Mean duration,"[1]; 360 μg/kg Q1W SC, N = 4",1.7 days
same,Patients with CRS,"[1]; 360 μg/kg Q1W SC, N = 4",3 (75%)
same,CRS Grade 1 (patients),"[1]; 600 μg/kg Q1W SC, N = 6",4
same,CRS Grade 2 (patients),"[1]; 600 μg/kg Q1W SC, N = 6",2
same,CRS Mean duration,"[1]; 600 μg/kg Q1W SC, N = 6",1.7 days
same,Patients with CRS,"[1]; 600 μg/kg Q1W SC, N = 6",6 (100%)
same,Decrease of medium duration of CRS by introducing priming dose,"[1]; 600 μg/kg priming then 1000 μg/kg vs 1000 μg/kg without priming, SC",50%
same,CRS Grade 1 (patients),[1]; [2],11
same,CRS Grade 2 (patients),[1]; [2],9
same,CRS Mean duration,[1]; [2],2 days
same,Patients with CRS,[1]; [2],20 (100%)
same,CRS Grade 1 (patients),"[1]; 1000 μg/kg Q1W SC, N = 6",5
same,CRS Grade 2 (patients),"[1]; 1000 μg/kg Q1W SC, N = 6",1
same,CRS Mean duration,"[1]; 1000 μg/kg Q1W SC, N = 6",4 days
same,Patients with CRS,"[1]; 1000 μg/kg Q1W SC, N = 6",6 (100%)
same,Patients who experienced dose limiting toxicities (DLTs),"[1]; IV cohorts, 23 patients, febrile neutropenia Grade 3 and electrocardiogram QT prolongation Grade 1",2 patients
same,CRS onset after dosing,"[1]; IV cohorts, each of the 11 patients with CRS",≤ 2 days
same,Impact of dose frequency (Q1W v. Q2W) on the CRS,"[1]; Part 1.1, 600 μg/kg priming, 1000 μg/kg SC",no impact
same,Patients who experienced dose limiting toxicities (DLTs),[1]; SC cohorts (80-1000 μg/kg),No patients
same,CRS onset after dosing,"[1]; SC cohorts, primarily",≤ 2 days
same,Patients who experienced maximum Grade 1 CRS,[1]; all IV treated patients,6 (26.1%)
same,Patients who experienced maximum Grade 2 CRS,[1]; all IV treated patients,5 (21.7%)
same,Patients who experienced maximum Grade 1 CRS,[1]; all SC treated patients,18 (60.0%)
same,Patients who experienced maximum Grade 2 CRS,[1]; all SC treated patients,5 (16.7%)
same,CRS severity in SC-treated vs IV-treated patients,[1]; despite higher overall dose exposure in SC-treated patients,less severe CRS
same,Toxicities,[1]; highest dose levels of 600 and 1000 μg/kg SC,tolerable and manageable
